T1: Human TSLPR on the cell surface (Ba/F3/hTSLPR/hIL7Rα cells, Ba/F3/hTSLPR/hIL7Rα/Stat5-Luc cells, human … (human, UniProt Q9HC73 23-371))
T1 sequence (looked up): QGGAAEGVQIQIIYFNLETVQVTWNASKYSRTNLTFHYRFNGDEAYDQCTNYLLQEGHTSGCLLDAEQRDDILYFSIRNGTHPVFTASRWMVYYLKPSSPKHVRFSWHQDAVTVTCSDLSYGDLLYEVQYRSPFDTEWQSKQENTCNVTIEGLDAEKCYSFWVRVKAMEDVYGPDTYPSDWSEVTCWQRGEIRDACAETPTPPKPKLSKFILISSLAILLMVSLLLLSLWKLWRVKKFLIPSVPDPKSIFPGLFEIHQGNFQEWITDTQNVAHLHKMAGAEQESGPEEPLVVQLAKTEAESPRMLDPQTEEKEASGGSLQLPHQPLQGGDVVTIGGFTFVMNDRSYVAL

T2: Human TSLPR (human, UniProt Q9HC73 23-231, limits assumed)
T2 construct: also called hTSLPR; human thymic stromal lymphopoietin receptor
T2 sequence (looked up): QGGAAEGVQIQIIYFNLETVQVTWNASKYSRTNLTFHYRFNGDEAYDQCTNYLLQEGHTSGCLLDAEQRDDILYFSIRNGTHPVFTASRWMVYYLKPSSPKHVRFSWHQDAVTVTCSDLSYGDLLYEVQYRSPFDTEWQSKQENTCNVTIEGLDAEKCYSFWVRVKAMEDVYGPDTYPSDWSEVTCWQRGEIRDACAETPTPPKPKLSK

T3: Human TSLPR fragment 67-174 (human, UniProt Q9HC73)
T3 construct: extracellular domain fragment; also called 67 (23) to 174 (58)
T3 receptor fragment (looked up): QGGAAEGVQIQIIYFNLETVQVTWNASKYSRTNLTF

T4: Human TSLPR fragment 67-336 (human, UniProt Q9HC73)
T4 construct: extracellular domain fragment; also called 67 (23) to 336 (112)
T4 sequence (receptor fragment, looked up): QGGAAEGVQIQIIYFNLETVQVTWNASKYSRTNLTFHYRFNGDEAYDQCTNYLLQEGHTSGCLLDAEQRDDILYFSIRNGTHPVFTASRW


How the values were obtained:
[1] = target: T1, Human TSLPR on the cell surface …; assay: cell-based or functional assay
Human TSLPR [2] = target: T2, Human TSLPR; assay: Biacore surface plasmon resonance
Human TSLPR [3] = target: T2, Human TSLPR; assay: ForteBio, solution binding kinetics
[4] = target: T3, Human TSLPR fragment 67-174; assay: ELISA of antibody 1D6.C9 on human TSLPR fragments (OD650); hFc bars as control for the fragment
[5] = target: T4, Human TSLPR fragment 67-336; assay: as above

Binder | IC50 [pM] Human TSLPR Prolif. [1] [pM] | IC50 [pM] Human TSLPR Prolif. (15% serum) [1] [pM] | IC50 [pM] Human TSLPR RGA [1] [pM] | IC50 [pM] Human TSLPR RGA (15% serum) [1] [pM] | Kd (Human TSLPR [2]) [pM] | Kd (Human TSLPR [3]) [pM] | binding result [4] | binding result [5]
NV115-3B (Fab) (Fab, V domains shown, the constant domains of the Fab are not) VH: QVQLVQSGAEVKKPGASVKVSCKASGYTFTTYGISWLRQAPGQGLEWMGWVNTNTGNPRYAQGFTGRFVFSLDTSVSTAYLQISSLKAEDTAVYYCAREGFITTVVGAAGRFVYWGQGTLVTVSS VL: DIQMTQSPSSLSASVGDRVTITCRASQDIHTRLAWYQQKPGQPPKLLIYWASTRASGVPDRFSGTGSGTDFTLTISSLQAEDVAVYYCQQYSTYPTFGQGTKLEIK | 210 | 200 | 270 | 950 | 101 | 51 | – | –
mouse anti-hTSLPR monoclonal antibody clone 1D6.C9 (antibody, V domains shown, also called mAb 1D6.C9; mouse anti-hTSLPR antibody) VH: QIQLGQSGPELKKPGETVKISCKASGYTFTTYGMSWVKQAPGKGLQWMGWINTYSGVPRYADDFKGRFAFSLETSASTAYLQIYNLKNEDTATYFCTREGFITTVVGAAGRFVYWGQGTLVTVSA VL: DIVMTQSHKFMSTSVGDRVSITCKASQDVGTAVAWYQQKPGQSPKLLIYWASTRHTGVPDRFTGSGSGTDFTLTLNNVQSEDLADYFCQQYSTYPTFGSGTKLELKR | – | – | – | – | – | – | no binding | no binding
